The subject of assay [1] is cyno GHR. Put plainly: STAT5 phosphorylation in vitro assay, cyno GHR-transfected HEK293 cells. Conditions: for fluorescent signal ave (phospho-STAT5): Table 8, cyno GHR-transfected cells. Format: cell-based, cynomolgus monkey. Here is the method:
This Example illustrates the effect of GHR antibodies in an in vitro STAT5 phosphorylation assay. In this Example, the ability of GHR antibodies to block GHR downstream signaling was tested in vitro using human GHR overexpressing cells and cyno GHR overexpressing cells.
GHR antagonist antibody Ab13 was tested for its ability to block STAT5 in an in vitro assay. HEK293 cells were transiently transfected with either DNA encoding full-length human GHR (SEQ ID NO: 140) or DNA encoding full-length cyno GHR (SEQ ID NO: 141). Cells were cultured in freestyle media for approximately 60 hours before testing. Cells were washed with DPBS (Dulbecco's Phosphate-Buffered Saline) and resuspended in Freestyle media, then counted using a hemocytometer. 1×10^6 cells were seeded per well in 6-well plates in 2 mls of Freestyle media. Cells were incubated for 2 hours at 37° C., then treated with 5, 50, or 500 nM Ab13 antibody in media. Cells were incubated at 37° C. with gentle mixing for 5 min with antibodies. 4.5 nM GH (Genotropin) was then added to all but control wells. Cells were incubated with GH at 37° C. with gentle mixing for 10 minutes.
Following incubation with GH, 2 ml of ice cold DPBS with 1× protease inhibitor cocktail (Roche) and 1 mM sodium orthovanadate (BioLabs) were added to each well and the plates were placed on ice. Cells were transferred to 5 ml tubes and spun down to create a cell pellet and the wash buffer was aspirated, leaving the cell pellet.
Reagents from Millipore™ MILLIPLEX® MAP Cell Signaling Buffer and Detection Kit (cat. #48-602) were used to lyse and treat the cell pellets. Millipore lysis buffer with 1× protease inhibitor cocktail and 1 mM sodium orthovanadate was added to each pellet at a volume of 200 ul/pellet. Cells were vortexed and incubated for 15 minutes at room temp with occasional vortexing. Millipore Assay buffer 2 with 1× protease inhibitor cocktail and 1 mM sodium orthovanadate was then added to the lysates at 300 ul/well.
Millipore™ MILLIPLEX® MAP Phospho STAT5N8 (Tyr694/699) MAPmate™ beads (Cat. #46-641) were resuspended in Assay Buffer 2 (from Millipore™ kit cat. #48-602) and loaded on a 96-well filter plate (provided in kit) at 25 ul/well, 25 ul/well of sample lysate was added to the wells and the beads and samples were incubated overnight at 4′C with shaking in the dark.
The liquid was then aspirated using a vacuum manifold and the remaining beads were washed using Millipore™ kit wash buffer. 25 ul Millipore™ kit detection antibody was added and incubated for 1 hour at room temperature with shaking in the dark. The detection antibody was vacuumed through and 25 ul kit streptavidin—Phycoerythrin was added and incubated in the dark for 15 min with shaking. 25 ul kit amplification buffer was then added and incubated for 15 min with shaking in the dark. The liquid was aspirated using a vacuum manifold, and the beads were resuspended in 150 ul kit assay buffer 2 and mixed on a shaker for 5 minutes before reading the plate.
The plate was read using a Luminex™ 200 instrument and fluorescent signal emitted from the samples was measured, The results of the STAT5 assay are shown in Tables 5 and 6. “Ave” indicates the average fluorescent signal, and “SEM” indicates the standard error of the mean.
Antibodies SS3 and SS1 (hIgG2Δa) were tested using a STAT5 phosphorylation assay. For the STAT5 assay, full-length human GHR overexpressing HEK293 cells or full-length cyno GHR-overexpressing HEK293 cells were cultured, counted by automated cell counter, and seeded in warm freestyle media in 12-well plates (5×10^5 cells/well in 1 ml media). Cells were allowed to settle for 3 hours at 37° C. then treated with 2.5, 5, 50, or 500 nM of SS1 or SS3 in media. […] Cells were incubated with GH at 37° C. with gentle mixing for 10 minutes.
Reagents from Millipore™ MILLIPLEX® MAP Cell Signaling Buffer and Detection Kit (cat, #48-602) were used to lyse and treat the cell pellets. […]

Assay [2] has as its system CT26 tumors. Put plainly: CT26 syngeneic mouse model of colorectal cancer, tumor volume and weight. Format: in vivo. Conditions: day 28, BALB/c mice bearing CT26 tumors, Ab11 10 mg/kg, irinotecan 100 mg/kg IP, hydrochloride.
Procedure: The CT26 cell line was used as a syngeneic mouse model of colorectal cancer. Mice were injected with tumor cells and dosed with the Ab11 antibody alone or in combination with iriniotecan.
BALB/c mice (BALB/cAnNCrl) were obtained from Charles River (Hollister, Calif., USA) and maintained in the animal facility at Rinat. […] The mice were housed in microisolators (filter top cages) under pathogen-free conditions with a 12-h light/12-h dark schedule and fed autoclaved standard chow and water throughout the experiment.
Cells were harvested by brief incubation with Accutase (A6964-100ML) (Sigma™ Aldrich, Inc., St. Louis, Mo., USA) and washed in new medium for counting. […]
Mice were dose intraperitoneally (IP) every second to third day. Tumor volume and body weight were measured at least twice a week. […]
The tumors were measured every 2-4 days with a digital caliper (mm). Baseline tumor volumes were calculated using the following formula: V=d2^2×(d½) where d1 was the longest diameter of the tumor and d2 was the perpendicular to d1. At the end of the study, while the study was still blinded, outliers were determined and excluded from all four groups. Tumors that were 3× standard error of the mean < mean and 3× standard error of the mean > mean on all days after day 14 (days 18, 22, 25, and 28) were determined outliers. Tumor weight at the end of the study was also measured.
In assay [3] the target is T1, human GHR (Homo sapiens, UniProt P10912, I544L).
T1 construct: expressed in transfected cells; host or cells: HEK293
T1 sequence (P10912 19-638 I544L): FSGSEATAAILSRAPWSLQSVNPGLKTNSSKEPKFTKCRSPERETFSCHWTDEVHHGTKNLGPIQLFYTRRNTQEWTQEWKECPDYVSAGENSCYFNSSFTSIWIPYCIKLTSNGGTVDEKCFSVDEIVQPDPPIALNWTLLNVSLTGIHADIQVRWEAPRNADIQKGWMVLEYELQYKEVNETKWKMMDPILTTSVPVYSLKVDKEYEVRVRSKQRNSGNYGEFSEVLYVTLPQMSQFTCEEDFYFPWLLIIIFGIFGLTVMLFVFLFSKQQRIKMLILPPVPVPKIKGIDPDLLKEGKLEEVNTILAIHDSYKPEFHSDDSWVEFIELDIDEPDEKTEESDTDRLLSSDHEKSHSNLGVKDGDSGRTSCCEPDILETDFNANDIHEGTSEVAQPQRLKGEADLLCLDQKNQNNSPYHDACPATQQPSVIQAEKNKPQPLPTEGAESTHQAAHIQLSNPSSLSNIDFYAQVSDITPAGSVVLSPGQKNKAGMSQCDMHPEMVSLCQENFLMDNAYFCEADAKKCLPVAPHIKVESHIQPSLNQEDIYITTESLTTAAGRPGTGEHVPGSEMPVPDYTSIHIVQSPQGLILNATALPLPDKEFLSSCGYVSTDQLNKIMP
Put plainly: STAT5 phosphorylation in vitro assay, human GHR-transfected HEK293 cells. Format: cell-based. The following applies: for fluorescent signal ave (phospho-STAT5): Table 7, human GHR-transfected cells. Here is the method: This Example illustrates the effect of GHR antibodies in an in vitro STAT5 phosphorylation assay. In this Example, the ability of GHR antibodies to block GHR downstream signaling was tested in vitro using human GHR overexpressing cells and cyno GHR overexpressing cells. […]
Antibodies SS3 and SS1 (hIgG2Δa) were tested using a STAT5 phosphorylation assay. For the STAT5 assay, full-length human GHR overexpressing HEK293 cells or full-length cyno GHR-overexpressing HEK293 cells were cultured, counted by automated cell counter, and seeded in warm freestyle media in 12-well plates (5×10^5 cells/well in 1 ml media). Cells were allowed to settle for 3 hours at 37° C. then treated with 2.5, 5, 50, or 500 nM of SS1 or SS3 in media.
Millipore™ lysis buffer with 1× protease inhibitor cocktail and sodium orthovanadate was added to each pellet at a volume of 100 ul/pellet Cells were vortexed and incubated for 15 minutes at room temp with occasional vortexing, Millipore™ Assay buffer 2 with 1× protease inhibitor cocktail and 1 mM sodium orthovanadate was then added to the lysates at 200 ul/well.
25 ul/well of sample lysate was added to the wells and the beads and samples were incubated overnight at 4′C with shaking in the dark. […]
The plate was read using a Luminex 200 instrument and florescent signal emitted from the samples was measured.

Where a name gives a salt, the structure may show the parent alone. Marks after values point to notes of the source that are not given here.

cyno GHR, sequence (as listed by the source): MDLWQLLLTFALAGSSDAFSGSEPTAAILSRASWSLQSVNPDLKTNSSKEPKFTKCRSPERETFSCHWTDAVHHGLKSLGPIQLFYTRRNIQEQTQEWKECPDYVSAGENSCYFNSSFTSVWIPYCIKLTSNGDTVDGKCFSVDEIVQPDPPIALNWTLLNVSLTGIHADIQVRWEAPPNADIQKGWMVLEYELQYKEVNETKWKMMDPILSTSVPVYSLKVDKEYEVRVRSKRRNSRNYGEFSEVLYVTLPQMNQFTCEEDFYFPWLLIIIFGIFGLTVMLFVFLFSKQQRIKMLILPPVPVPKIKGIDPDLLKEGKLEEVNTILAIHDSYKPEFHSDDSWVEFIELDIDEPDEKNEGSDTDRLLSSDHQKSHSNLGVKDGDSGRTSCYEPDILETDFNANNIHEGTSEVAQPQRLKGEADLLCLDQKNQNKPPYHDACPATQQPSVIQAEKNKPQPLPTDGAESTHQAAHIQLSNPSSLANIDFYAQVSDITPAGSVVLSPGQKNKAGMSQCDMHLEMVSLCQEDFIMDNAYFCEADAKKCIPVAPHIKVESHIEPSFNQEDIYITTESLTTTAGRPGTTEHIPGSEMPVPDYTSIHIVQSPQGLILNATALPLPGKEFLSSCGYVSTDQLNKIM

On to “GH: growth hormone, added at 4.5 nM to stimulate STAT5 signaling in GHR-transfected cells [reference compound]”, for which, in assay [1] (Table 6, cyno GHR-transfected cells, 4.5 nM GH alone), the “fluorescent signal Ave (phospho-STAT5)” value worked out at 562. In addition, the “fluorescent signal ave (phospho-STAT5)” value in assay [1] (4.5 nM GH alone) is 847.

For the molecule `CCc1c2c(nc3ccc(OC(=O)N4CCC(N5CCCCC5)CC4)cc13)-c1cc3c(c(=O)n1C2)COC(=O)[C@]3(O)CC` [Irinotecan, Irinotecan hydrochloride], the figures for the “Tumor weight (in grams), mean” value in assay [2] and in assay [2] (listed as irinotecan) were 1.2** g and 1.2 g, respectively.

B1: SS3: humanized GHR antagonist antibody; VL SEQ ID NO: 9, VH SEQ ID NO: 10 (antibody, V domains shown)
VH: EVQLVESGGGLVKPGGSLRLSCAASGFTFSDAWMDWVRQAPGKGLEWVAEIRSKANNHATYYAESVKGRFTISRDDSKNTLYLQMNSLKTEDTAVYYCTLFRDYWGQGTLVTVSS
VL: EIVLTQSPGTLSLSPGERATLSCTATSSVSSSYLNWYQQKPGQAPRLLIYSTSNLASGIPDRFSGSGSGTDFTLTISRLEPEDFAVYYCHQYHRFTPTFGGGTKVEIK
modifications: Humanized and/or affinity matured antibody sequence
For the molecule B1, the “fluorescent signal ave (phospho-STAT5)” value was found to be 100 in assay [3] (2.5 nM antibody + 4.5 nM GH); 48 in assay [3] (5 nM antibody + 4.5 nM GH); 0 in assay [3] (50 nM antibody + 4.5 nM GH); 0 in assay [3] (500 nM antibody + 4.5 nM GH); 621 in assay [1] (2.5 nM antibody + 4.5 nM GH); 518 in assay [1] (5 nM antibody + 4.5 nM GH). For the same molecule, the “fluorescent signal ave (phospho-STAT5)” value is reported as 50 in assay [1] (50 nM antibody + 4.5 nM GH) and 8 in assay [1] (500 nM antibody + 4.5 nM GH). For the same molecule, the “effect on GH-stimulated STAT5 signaling” value is listed as “blocked STAT5 signaling in a dose-dependent manner” in assay [3] (cells expressing human GHR, 4.5 nM GH) and “blocked STAT5 signaling in a dose-dependent manner” in assay [1] (cells expressing cyno GHR, 4.5 nM GH).

Source of the values: patent US9249224B2 (RINAT NEUROSCIENCE CORP., priority 2011, dated 2016).
